From patent publication US20200024330A1

What was measured:
Assay in all cases: cell-based or functional assay
[1] = target: HIV-1 92BR020 Env (pseudovirus) (HIV-1)
[2] = target: HIV-1 93IN905 envelope glycoprotein (Env) on pseudovirus (HIV-1)
[3] = target: HIV-1 93UG077 envelope glycoprotein (Env) on pseudovirus (HIV-1)
[4] = target: HIV-1 94UG103 envelope glycoprotein (Env) on pseudovirus (HIV-1)
[5] = target: HIV-1 CAAN.A2 Env (pseudovirus) (HIV-1)
[6] = target: HIV-1 Env of isolate 92UG001 (subtype D) (HIV-1)
[7] = target: HIV-1 Env of isolate 98CN006 (subtype CRF08 BC) (HIV-1)
[8] = target: HIV-1 Env of isolate MG RM-D-020 (subtype D) (HIV-1)
[9] = target: HIV-1 Env of isolate MGRM-C-023 (pseudovirus) (HIV-1 isolate MGRM-C-023, subtype C)
[10] = target: HIV-1 Env of isolate MGRM-C-025 (pseudovirus) (HIV-1 isolate MGRM-C-025, subtype C)
[11] = target: HIV-1 Env of isolate MGRM-C-027 (pseudovirus) (HIV-1 isolate MGRM-C-027, subtype C)
[12] = target: HIV-1 Env of isolate MGRM-F1-014 (HIV-1)
[13] = target: HIV-1 Env of isolate MGRM-F1-017 (HIV-1)
[14] = target: HIV-1 Env of isolate MGRM-F1-023 (HIV-1)
[15] = target: HIV-1 JR-CSF Env N478A (HIV-1 (isolate JR-CSF)) (UniProt P20871)
[16] = target: HIV-1 JR-CSF Env P470A (HIV-1 (isolate JR-CSF)) (UniProt P20871)
[17] = target: HIV-1 JR-CSF Env R480A (HIV-1 (isolate JR-CSF)) (UniProt P20871)
[18] = target: HIV-1 MGRM-A-010 envelope glycoprotein (Env) on pseudovirus (HIV-1)
[19] = target: HIV-1 MGRM-Chronic-B-024 Env (pseudovirus) (HIV-1)
[20] = target: HIV-1 TRO.11 Env (pseudovirus) (HIV-1)
[21] = target: HIV-1 Env of isolate 98CN009 (HIV-1)
[22] = target: HIV-1 Env of isolate MG RM-A-006 (HIV-1)
[23] = target: HIV-1 Env of isolate MGRM-A-009 (clade A), on pseudovirus (HIV-1)
[24] = target: HIV-1 Env of isolate MGRM-AE-001 (CRF01_AE), on pseudovirus (HIV-1)
[25] = target: HIV-1 Env of isolate MGRM-AE-003 (CRF01_AE), on pseudovirus (HIV-1)
[26] = target: HIV-1 Env of isolate MGRM-AG-006 (CRF_AG), on pseudovirus (HIV-1)
[27] = target: HIV-1 Env of isolate MGRM-F1-008 (subtype F), on pseudovirus (HIV-1)
[28] = target: HIV-1 Env of isolate NL43 (HIV-1)

4858_P08 (PGT-123) (antibody) was tested, and the IC50, pseudovirus neutralization [1] was 0.008 µg/mL, the IC50 (ug/ml), neutralizing activity [2] was 0.0071 µg/mL and the IC50, pseudovirus neutralization [2] was 0.0071 µg/mL. The IC80, pseudovirus neutralization [2] was 0.0281 µg/mL, the IC90 (pseudovirus neutralization) [2] was 0.0625 µg/mL and the IC95, pseudovirus neutralization [2] was 0.131 µg/mL. It also gave an IC50 (ug/ml), neutralizing activity [3] of 0.0303 µg/mL, an IC50, pseudovirus neutralization [3] of 0.0303 µg/mL and an IC80, pseudovirus neutralization [3] of 0.143 µg/mL. The IC90 (pseudovirus neutralization) [3] was 0.35 µg/mL, the IC95, pseudovirus neutralization [3] was 0.78 µg/mL and the IC50 (ug/ml), neutralizing activity [4] was 0.846 µg/mL. It also gave an IC50, pseudovirus neutralization [4] of 0.846 µg/mL, an IC80, pseudovirus neutralization [4] of 3.29 µg/mL and an IC90 (pseudovirus neutralization) [4] of 8.56 µg/mL. The IC95, pseudovirus neutralization [4] was greater than 10 µg/mL, the IC50, pseudovirus neutralization [5] was 0.015 µg/mL and the IC50 (µg/mL), pseudovirus neutralization [6] was greater than 50 µg/mL. For the same substance, the IC50 (µg/mL), pseudovirus neutralization [7] was 0.008 µg/mL, the IC50 (µg/mL), pseudovirus neutralization [8] was 0.018 µg/mL and the IC50 (µg/mL) neutralization [9] was 0.011 µg/mL. For the same substance, the IC50 (µg/mL) neutralization [10] was 13.3 µg/mL, the IC50 (µg/mL) neutralization [11] was 0.02 µg/mL and the IC50 [12] was 0.111 µg/mL. For the same substance, the IC50 [13] was greater than 50 µg/mL, the IC50 [14] was 0.053 µg/mL and the Fold IC50 increase relative to wild-type [15] was 0.6 fold. It also gave a Fold IC50 increase relative to wild-type [16] of 0.8 fold, a Fold IC50 increase relative to wild-type [17] of 1.7 fold and an IC50 (ug/ml), neutralizing activity [18] of 0.492 µg/mL. The IC50, pseudovirus neutralization [18] was 0.492 µg/mL, the IC80, pseudovirus neutralization [18] was 2.79 µg/mL and the IC90 (pseudovirus neutralization) [18] was 6.44 µg/mL. It also gave an IC95, pseudovirus neutralization [18] greater than 10 µg/mL, an IC50, pseudovirus neutralization [19] greater than 50 µg/mL and an IC50, pseudovirus neutralization [20] of 0.008 µg/mL.
5114_A19 (PGT-128) (antibody) gave an IC50 [21] of 0.025 µg/mL, a neutralization IC50 [22] greater than 50 µg/mL and an IC50, single-round pseudovirus neutralization [23] of 0.005 µg/mL. It also gave an IC50, single-round pseudovirus neutralization [24] of 0.069 µg/mL, an IC50, single-round pseudovirus neutralization [25] of 0.18 µg/mL and an IC50, single-round pseudovirus neutralization [26] of 0.009 µg/mL. It also gave an IC50, pseudovirus neutralization [27] greater than 50 µg/mL, an IC50 [28] greater than 50 µg/mL and a Fold IC50 increase relative to wild-type [15] of 0.8 fold. The Fold IC50 increase relative to wild-type [16] was 0.6 fold and the Fold IC50 increase relative to wild-type [17] was 0.1 fold.
In the case of 5123_A06 (PGT-125) (antibody), the IC50, pseudovirus neutralization [1] is reported as 0.016 µg/mL, the IC50 (ug/ml), neutralizing activity [2] is reported as 0.0137 µg/mL and the neutralization IC50 [2] is reported as 0.0137 µg/mL. The neutralization IC80 [2] was 0.0494 µg/mL, the neutralization IC90 [2] was 0.106 µg/mL and the neutralization IC95 [2] was 0.216 µg/mL. For the same substance, the IC50 (ug/ml), neutralizing activity [3] was 0.0262 µg/mL, the neutralization IC50 [3] was 0.0262 µg/mL and the neutralization IC80 [3] was 0.0926 µg/mL. It also gave a neutralization IC90 [3] of 0.206 µg/mL, a neutralization IC95 [3] of 0.487 µg/mL and an IC50 (ug/ml), neutralizing activity [4] of 0.0124 µg/mL. The neutralization IC50 [4] was 0.0124 µg/mL, the neutralization IC80 [4] was 0.0373 µg/mL and the neutralization IC90 [4] was 0.071 µg/mL. The neutralization IC95 [4] was 0.129 µg/mL, the IC50, pseudovirus neutralization [5] was 5.47 µg/mL and the IC50 (µg/mL), pseudovirus neutralization [6] was greater than 50 µg/mL. It also gave an IC50 (µg/mL), pseudovirus neutralization [7] of 0.201 µg/mL, an IC50 (µg/mL), pseudovirus neutralization [8] greater than 50 µg/mL and an IC50 (µg/mL) neutralization [9] of 1.31 µg/mL. It also gave an IC50 (µg/mL) neutralization [10] of 42.5 µg/mL, an IC50 (µg/mL) neutralization [11] greater than 50 µg/mL and an IC50 [12] greater than 50 µg/mL. It also gave an IC50 [13] greater than 50 µg/mL, an IC50 [14] of 0.12 µg/mL and a Fold IC50 increase relative to wild-type [15] of 1.5 fold. It also gave a Fold IC50 increase relative to wild-type [16] of 1.6 fold, a Fold IC50 increase relative to wild-type [17] of 2.1 fold and an IC50 (ug/ml), neutralizing activity [18] of 0.0025 µg/mL. For the same substance, the neutralization IC50 [18] was 0.0055 µg/mL, the neutralization IC80 [18] was 0.024 µg/mL and the neutralization IC90 [18] was 0.0575 µg/mL. It also gave a neutralization IC95 [18] of 0.131 µg/mL, an IC50, pseudovirus neutralization [19] greater than 50 µg/mL and an IC50, pseudovirus neutralization [20] of 0.111 µg/mL.
5136_H01 (PGT-131) (antibody) gave an IC50 [21] of 4.05 µg/mL, a neutralization IC50 [22] greater than 50 µg/mL and an IC50, single-round pseudovirus neutralization [23] of 0.035 µg/mL. For the same substance, the IC50, single-round pseudovirus neutralization [24] was 4.8 µg/mL, the IC50, single-round pseudovirus neutralization [25] was 1.41 µg/mL and the IC50, single-round pseudovirus neutralization [26] was 0.019 µg/mL. For the same substance, the IC50, pseudovirus neutralization [27] was 2.74 µg/mL, the IC50 [28] was greater than 50 µg/mL and the Fold IC50 increase relative to wild-type [15] was 1 fold. It also gave a Fold IC50 increase relative to wild-type [16] of 1 fold and a Fold IC50 increase relative to wild-type [17] of 1.5 fold.
5141_B17 (PGT-126) (antibody) showed an IC50 [1] of 0.0163 µg/mL, an IC50, pseudovirus neutralization [1] of 0.015 µg/mL and an IC80 [1] of 0.0457 µg/mL. It also gave an IC90 [1] of 0.0846 µg/mL, an IC95 [1] of 0.152 µg/mL and an IC50 (ug/ml), neutralizing activity [2] of 0.0194 µg/mL. The IC50 (ug/ml), neutralizing activity [3] was 0.0256 µg/mL, the IC50 (ug/ml), neutralizing activity [4] was 0.0091 µg/mL and the IC50, pseudovirus neutralization [5] was 0.273 µg/mL. It also gave an IC50 (µg/mL), pseudovirus neutralization [6] greater than 50 µg/mL, an IC50 (µg/mL), pseudovirus neutralization [7] of 0.046 µg/mL and an IC50 (µg/mL), pseudovirus neutralization [8] of 0.023 µg/mL. The IC50 (µg/mL) neutralization [9] was 0.065 µg/mL, the IC50 (µg/mL) neutralization [10] was 0.786 µg/mL and the IC50 (µg/mL) neutralization [11] was 15.6 µg/mL. The IC50 [12] was greater than 50 µg/mL, the IC50 [13] was greater than 50 µg/mL and the IC50 [14] was 0.009 µg/mL. For the same substance, the Fold IC50 increase relative to wild-type [15] was 1 fold, the Fold IC50 increase relative to wild-type [16] was 2.7 fold and the Fold IC50 increase relative to wild-type [17] was 1.9 fold. The IC50 (ug/ml), neutralizing activity [18] was 0.0033 µg/mL, the IC50, pseudovirus neutralization [19] was greater than 50 µg/mL and the IC50, pseudovirus neutralization [20] was 0.041 µg/mL.
